Literature values as cited in patent US20200276303A1, “Combination Therapies and Uses for Treatment of Demyelinating Disorders” (Biogen MA Inc., priority 2012, published 2020).

B1: Daclizumab: therapeutic humanized monoclonal antibody to the alpha subunit of the IL-2 receptor of T cells (antibody, chains of the INN, looked up, V domains shown)
VH: QVQLVQSGAEVKKPGSSVKVSCKASGYTFTSYRMHWVRQAPGQGLEWIGYINPSTGYTEYNQKFKDKATITADESTNTAYMELSSLRSEDTAVYYCARGGGVFDYWGQGTLVTVSS
VL: DIQMTQSPSTLSASVGDRVTITCSASSSISYMHWYQQKPGKAPKLLIYTTSNLASGVPARFSGSGSGTEFTLTISSLQPDDFATYYCHQRSTYPLTFGQGTKVEVK

Conditions: for Disease activity measured by brain lesions (MRI scans) and relapse rate compared to placebo: Phase 2 clinical studies in relapse remitting MS

Molecule | Disease activity measured by brain lesions (MRI scans) and relapse rate compared to placebo | other results
alemtuzumab: antibody against CD52 | – | Phase III studies comparing with Rebif (high-dose subcutaneous interferon beta-1a) (patients with relapsing-remitting MS (RRMS)): positive results
ocrelizumab: antibody against CD20 | statistically significant reduction | –
rituximab: antibody against CD20 | statistically significant reduction | –
B1 | – | Reducing lesions and improving clinical scores (patients with multiple sclerosis not controlled with interferon): effective
